Assays:
[1] = target: BamA(S274C/C690S/C700S) (disulfide-crosslinked SurA–BAM complex 1) (E. coli, UniProt P0A940 21-810, S274C | C690S | C700S); test: cryo-EM structure
[2] = target: BamA(C690S/C700S) (disulfide-crosslinked SurA–BAM complex 2) (E. coli, UniProt P0A940 21-810, C690S | C700S); test: cryo-EM structure

| binding result [2] | Binder | binding result [1] |
| --- | --- | --- |
|  | SurA(N336C)-His10 (disulfide-crosslinked SurA–BAM complex 1) (natural protein) APQVVDKVAAVVNNGVVLESDVDGLMQSVKLNAAQARQQLPDDATLRHQIMERLIMDQIILQMGQKMGVKISDEQLDQAIANIAKQNNMTLDQMRSRLAYDGLNYNTYRNQIRKEMIISEVRNNEVRRRITILPQEVESLAQQVGNQNDASTELNLSHILIPLPENPTSDQVNEAESQARAIVDQARNGADFGKLAIAHSADQQALNGGQMGWGRIQELPGIFAQALSTAKKGDIVGPIRSGVGFHILKVNDLRGESKNISVTEVHARHILLKPSPIMTDEQARVKLEQIAADIKSGKTTFAAAAKEFSQDPGSACQGGDLGWATPDIFDPAFRDALTRLNKGQMSAPVHSSFGWHLIELLDTRNVDKTDAAQKDRAYRMLMNRKFSEEAASWMQEQRASAYVKILSN | binds |
| binds | SurA(I297C)-His10 (disulfide-crosslinked SurA–BAM complex 2) (natural protein) APQVVDKVAAVVNNGVVLESDVDGLMQSVKLNAAQARQQLPDDATLRHQIMERLIMDQIILQMGQKMGVKISDEQLDQAIANIAKQNNMTLDQMRSRLAYDGLNYNTYRNQIRKEMIISEVRNNEVRRRITILPQEVESLAQQVGNQNDASTELNLSHILIPLPENPTSDQVNEAESQARAIVDQARNGADFGKLAIAHSADQQALNGGQMGWGRIQELPGIFAQALSTAKKGDIVGPIRSGVGFHILKVNDLRGESKNISVTEVHARHILLKPSPCMTDEQARVKLEQIAADIKSGKTTFAAAAKEFSQDPGSANQGGDLGWATPDIFDPAFRDALTRLNKGQMSAPVHSSFGWHLIELLDTRNVDKTDAAQKDRAYRMLMNRKFSEEAASWMQEQRASAYVKILSN |  |

From article doi:10.1101/2025.11.10.687524 (bioRxiv, 2025)
